In paper PMC314469, “Protein Interaction Networks by Proteome Peptide Scanning” (PLoS Biology, 2004) one finds normalised SPOT signal, Boehringer light units (BLU); mean over the file's lines of this peptide data, which are given here for 38 molecules.

The target of test [1] is T1, amphyphisin SH3 (AMPH_HUMAN), P49418.
T1 chain: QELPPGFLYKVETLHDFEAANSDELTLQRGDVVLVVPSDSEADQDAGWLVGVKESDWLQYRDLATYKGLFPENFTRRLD
The test can be described thus: SPOT array.

In test [2] the target is endophilin SH3 (SH3G2_HUMAN), Q99962. The test is described as follows: SPOT array.

In the case of GLLSLRRPAPRRLE [Q9HCE9 329-342], the values for the normalised SPOT signal, Boehringer light units (BLU); mean over the file's lines of this peptide in test [1] and in test [2] were 13.3 and 504, respectively.

Turning to GKGRPDRPARRPSP [Q9ULT2 465-478], the values for the normalised SPOT signal, Boehringer light units (BLU); mean over the file's lines of this peptide in test [1] and in test [2] were 2720 and 8700, respectively.

With GHQEFARPSRGYLA [P13385 32-45], the normalised SPOT signal, Boehringer light units (BLU); mean over the file's lines of this peptide worked out at 2370 in test [1] and 214 in test [2].

On to GLLLLPRPGRPLDL [P13497 12-25], for which the normalised SPOT signal, Boehringer light units (BLU); mean over the file's lines of this peptide in test [1] amounted to 97.6; in test [2], 88.4.

As for GIPPPKRPLKVSQK [Q9P2B8 1668-1681], the normalised SPOT signal, Boehringer light units (BLU); mean over the file's lines of this peptide came to 116 in test [1] and 687 in test [2].

As for GKLKLKRPEQLQEV [O15082 431-444], the normalised SPOT signal, Boehringer light units (BLU); mean over the file's lines of this peptide in test [1] was 32.6; in test [2], 35.2.

Consider GKVVPLRPPPPPKS [Q9UHN6 29-43], for which the normalised SPOT signal, Boehringer light units (BLU); mean over the file's lines of this peptide in test [1] worked out at 499; in test [2] it was 9090.

Consider GIPSPRRPMSNLWL [Q14031 953-966], for which the normalised SPOT signal, Boehringer light units (BLU); mean over the file's lines of this peptide in test [1] came to 76.5; in test [2], 647.

As to GLEVPRRPGARTGP [Q9P1Z1 1-14], the figures for the normalised SPOT signal, Boehringer light units (BLU); mean over the file's lines of this peptide in test [1] and in test [2] were 29.7 and 626, respectively.

For the molecule GKPNPRRPKDKMSA [O95985 843-856], the normalised SPOT signal, Boehringer light units (BLU); mean over the file's lines of this peptide turned out to be 13.6 in test [1] and 87.3 in test [2].

On to GLRRPEKPPYSYIA [Q12947 93-107], for which the normalised SPOT signal, Boehringer light units (BLU); mean over the file's lines of this peptide stood at 34.9 in test [1] and 285 in test [2].

Consider GKNRPLRPSRRRQL [Q9H5Z2 504-517], for which the results for the normalised SPOT signal, Boehringer light units (BLU); mean over the file's lines of this peptide in test [1] and in test [2] were 7430 and 1860, respectively.

With GKSHPKRPNSQSQH [Q9H6W1 84-97], the normalised SPOT signal, Boehringer light units (BLU); mean over the file's lines of this peptide in test [1] was determined as 45.5; in test [2], 0.

With GLSTLQRPLKDVTD [Q9H4V5 197-210], the normalised SPOT signal, Boehringer light units (BLU); mean over the file's lines of this peptide was determined as 108 in test [1] and 90.7 in test [2].

On to GKRPIKRPAYWRTE [Q9HAH2 675-688], for which the figures for the normalised SPOT signal, Boehringer light units (BLU); mean over the file's lines of this peptide in test [1] and in test [2] were 3.7 and 12.8, respectively.

For the molecule GLWLPRRPARSVGS [Q9H427 273-286], the normalised SPOT signal, Boehringer light units (BLU); mean over the file's lines of this peptide in test [1] stood at 8350; in test [2], 1850.

Turning to GHRDPRRPRPAQLP [O00456 566-579], the normalised SPOT signal, Boehringer light units (BLU); mean over the file's lines of this peptide is 12.9 in test [1] and 418 in test [2].

Take GHQEFARPSRGDLA [P51864 32-45]: the results for the normalised SPOT signal, Boehringer light units (BLU); mean over the file's lines of this peptide in test [1] and in test [2] were 1570 and 52.8, respectively.

As for ALHVPAKPPRAAAA [Q8WXD9 1334-1348], the normalised SPOT signal, Boehringer light units (BLU); mean over the file's lines of this peptide in test [1] is 4080; in test [2], 526.

As to GINAFARPSKMPYV [P40222 168-181], the normalised SPOT signal, Boehringer light units (BLU); mean over the file's lines of this peptide is 105 in test [1] and 96.7 in test [2].

GLGGPQKPPPHTEP [Q9H4M7 492-506]: the normalised SPOT signal, Boehringer light units (BLU); mean over the file's lines of this peptide was 40.1 in test [1] and 79.9 in test [2].

Consider ALKQLDRPEKGLSE [O14646 1427-1440], for which the values for the normalised SPOT signal, Boehringer light units (BLU); mean over the file's lines of this peptide in test [1] and in test [2] were 42.4 and 295, respectively.

As to GKLPPKRPELPPTL [Q9NVN2 625-638], the values for the normalised SPOT signal, Boehringer light units (BLU); mean over the file's lines of this peptide in test [1] and in test [2] were 30.7 and 205, respectively.

As for GMEKIWRPNRVFSL [O60795 134-147], the normalised SPOT signal, Boehringer light units (BLU); mean over the file's lines of this peptide in test [1] is 1120; in test [2], 175.

With AAMHPRRPDGFDGL [Q04197 18-31], the normalised SPOT signal, Boehringer light units (BLU); mean over the file's lines of this peptide in test [1] is 53.6; in test [2], 14.1.

As for GLSGPSRPPPPPQA [Q9UEE5 25-39], the normalised SPOT signal, Boehringer light units (BLU); mean over the file's lines of this peptide is 78.2 in test [1] and 2950 in test [2].

As for GHRPPGRPRRSPKA [O75866 29-42], the normalised SPOT signal, Boehringer light units (BLU); mean over the file's lines of this peptide in test [1] is 1010; in test [2], 172.

For GLGELLRPYRSASS [Q14526 480-493], the values for the normalised SPOT signal, Boehringer light units (BLU); mean over the file's lines of this peptide in test [1] and in test [2] were 367 and 112, respectively.

Turning to GIRRPEKPPYSYIA [Q12946 16-30], the normalised SPOT signal, Boehringer light units (BLU); mean over the file's lines of this peptide in test [1] stood at 53.1; in test [2], 864.

Turning to GNAGPRRPPGDPST [Q9C095 222-236], the normalised SPOT signal, Boehringer light units (BLU); mean over the file's lines of this peptide was found to be 37.1 in test [1] and 75.8 in test [2].

As to GLPAPLRPERLAPV [O94850 125-138], the figures for the normalised SPOT signal, Boehringer light units (BLU); mean over the file's lines of this peptide in test [1] and in test [2] were 2410 and 1890, respectively.

GLSGLKRPSSSAST [Q9P2Q0 476-489]: the normalised SPOT signal, Boehringer light units (BLU); mean over the file's lines of this peptide in test [1] came out at 32.5; in test [2], 34.9.

With GLGSPERPPKTSPG [Q9H6F5 54-68], the normalised SPOT signal, Boehringer light units (BLU); mean over the file's lines of this peptide worked out at 122 in test [1] and 508 in test [2].

With AKTPLSRPVKRNNA [O43525 89-102], the values for the normalised SPOT signal, Boehringer light units (BLU); mean over the file's lines of this peptide in test [1] and in test [2] were 52.6 and 149, respectively.

On to ALSHFRRPDVSVQG [Q06265 140-153], for which the values for the normalised SPOT signal, Boehringer light units (BLU); mean over the file's lines of this peptide in test [1] and in test [2] were 19.7 and 50.3, respectively.

GHTLPPKPPSPRGT [Q9HBQ2 154-168]: the results for the normalised SPOT signal, Boehringer light units (BLU); mean over the file's lines of this peptide in test [1] and in test [2] were 577 and 4690, respectively.

For GIKSPSKPPGPNRI [Q9Y474 19-33], the normalised SPOT signal, Boehringer light units (BLU); mean over the file's lines of this peptide in test [1] turned out to be 53.5; in test [2], 7270.

As for GNANIQRPSRKSVN [Q9NRA6 251-264], the normalised SPOT signal, Boehringer light units (BLU); mean over the file's lines of this peptide in test [1] was determined as 3260; in test [2], 166.
